Measurements from patent US10696631B2 (priority 2016, dated 2020).
Where two headings read alike, the source gives them in different places.

Key:
[1] = test system: MDA-MB-435 xenografts; conditions: mouse, in vivo
Text: (§1) Female athymic nude mice (Harlan Laboratories) were housed in an animal facility under pathogen-free conditions. Tumor model was developed in 5 to 6 weeks old female athymic nude mice by injection of 5×10^6 cells into their right shoulders. The mice underwent small-animal PET studies when the tumor volume reached 300 mm^3 (14-20 days after inoculation), and received ^90Y radionuclide therapy when the tumor volume reached 150 mm^3 (10-14 days after inoculation).
(§2) Blood, muscle, bone, liver, kidneys, spleen, intestine, heart and tumor were collected and wet-weighed. […] Radioactivity was measured in a γ-counter. The results were expressed % ID/g.

[2] = test system: HT29 xenografts; conditions: mouse, in vivo
Text: as §1, §2

[3] = human, in vivo
[4] = PET/CT and dosimetry calculation in healthy volunteers
[5] = mouse
Description: The red blood cells were separated from the plasma using centrifugation (3500 rpm for 5 min). […] The extracted soup was taken, filter on 0.45 μm filter and injected into an analytical HPLC using system 1.

[6] = test system: glioblastoma; assay: PET in a patient with WHO stage IV glioblastoma; conditions: GBM patient
[7] = test system: glioblastoma; conditions: human, in vivo
[8] = assay type: in vitro ADME, mouse
Text: At each time point, an aliquot was taken and loaded on iTLC plate and developed in for RadioTLC measurements.

[9] = test system: U87MG xenografts; assay: MicroPET imaging and biodistribution in U87MG xenografts
Text: as §1, §2

[10] = test system: U87MG cells
Description: (§3) All the cells were supplemented with 10% fetal bovine serum, 100 IU/mL penicillin, and […] streptomycin. Cells were grown in humidified atmosphere containing 5% CO2 at 37° C.

[11] = test system: HT29 cells; assay: Cellular uptake and internalization in HT29 cells; assay type: cell-based, human
Description: as §3

[12] = test system: U87MG tumor; assay: Histopathologic staining after targeted radiotherapy (CD31, Ki-67, TUNEL, H&E); assay type: in vivo, mouse
Description: U87MG tumor samples from Groups A-F were collected and sectioned after the animals were sacrificed. […] After being washed three times with PBS, samples were mounted with DAPI for staining of cell nuclei (Vector). Fluorescence images were acquired with an epifluorescence microscope (200×; Olympus, X81).
Immunofluorescent terminal deoxynucleotidetransferase-mediated biotin-dUTP labeling (TUNEL) analysis was done by use of a commercial available kit (Roche Applied Science). According to the manufacture's specifications, samples were fixed with 10% formalin and permeabilized by incubation with 0.1% Triton for 2 min on ice. After fixation and permeabilization, 50 μL of TUNEL reaction mixture were added on the samples. The slides were then incubated in a humidified atmosphere for 60 min at 37° C. in the dark. After rinsing with PBS and mounting with DAPI (Vector), samples were observed under an epifluorescence microscope using GFP channel.
CD31 staining to evaluate tumor vasculature, Ki-67 staining to evaluate tumor proliferation and TUNEL staining to determine the DNA damage were done for all the six groups (A-F). For groups A, E and F that had large necrotic area, staining was focused on the tumor rim where tumor cells were alive.

[13] = test system: U87MG tumor; assay: 18F-FDG and 18F-FLT PET imaging after 90Y radiotherapy; assay type: in vivo, mouse
[14] = test system: U87MG tumor; assay: 90Y radiotherapy in U87MG tumor bearing mice; assay type: in vivo, mouse
Text: NMEB-RGD was applied to integrin αvβ3 targeted radiotherapy. […] Similar pattern was observed after the second injection.

[15] = test system: HT29 tumor; assay type: in vivo, mouse; conditions: HT-29 tumor xenografts, 7.4 MBq
Description: In order to test the specificity of ^90Y-DMEB-RGD radiotherapy to integrin αvβ3, the efficacy of 7.4 MBq ^90Y-DMEB-RGD in HT29 that expresses lower human integrin levels but has moderate expression of mouse integrin was tested (FIG. 6). […] Injection of HT29 tumor bearing mice with 7.4 MBq ^90Y-DMEB-RGD was compared in the same model to injection of saline (FIG. 18A). […] HT-29 treated and non-treated mice were sacrificed at day 26 post injection due to tumors ulcer.

[16] = human, intravenous administration, n = 3

## Cc1cc(-c2ccc(NC(=O)[C@@H](CCCCNC(=O)CCN3C(=O)CC(SCC(=O)NCCCC[C@H]4NC(=O)[C@H](Cc5ccccc5)NC(=O)[C@H](CC(=O)O)NC(=O)CNC(=O)[C@H](CCCNC(=N)N)NC4=O)C3=O)NC(=O)CN3CCN(CC(=O)O)CCN(CC(=O)O)CC3)c(C)c2)ccc1/N=N/c1ccc2c(S(=O)(=O)O)cc(S(=O)(=O)O)c(N)c2c1O (some centres unmarked) [64Cu-NMEB-RGD, metal not drawn]
[1]
  tumor uptake compared with U87MG: significantly lower than U87MG at all time points
[2]
  tumor uptake compared with U87MG: significantly lower than U87MG at all time points
[3]
  accumulation in normal organs: no undesired accumulation in normal organs
[3]; iv
  Estimated absorbed dose, Adrenals, Mean: 0.0319 mSv/MBq
  Estimated absorbed dose, Brain, Mean: 0.0077 mSv/MBq
  Estimated absorbed dose, Breasts, Mean: 0.0241 mSv/MBq
  Estimated absorbed dose, Gallbladder Wall, Mean: 0.0346 mSv/MBq
  Estimated absorbed dose, Heart Wall, Mean: 0.0298 mSv/MBq
  Estimated absorbed dose, Liver, Mean: 0.1012 mSv/MBq
  Estimated absorbed dose, Lower Large Intestine Wall, Mean: 0.0291 mSv/MBq
  Estimated absorbed dose, Lungs, Mean: 0.0200 mSv/MBq
  Estimated absorbed dose, Muscle, Mean: 0.0127 mSv/MBq
  Estimated absorbed dose, Osteogenic Cells, Mean: 0.0528 mSv/MBq
  Estimated absorbed dose, Ovaries, Mean: 0.0294 mSv/MBq
  Estimated absorbed dose, Pancreas, Mean: 0.0647 mSv/MBq
  Estimated absorbed dose, Red Marrow, Mean: 0.0230 mSv/MBq
  Estimated absorbed dose, Skin, Mean: 0.0219 mSv/MBq
  Estimated absorbed dose, Small Intestine, Mean: 0.0545 mSv/MBq
  Estimated absorbed dose, Spleen, Mean: 0.1293 mSv/MBq
  Estimated absorbed dose, Stomach Wall, Mean: 0.0301 mSv/MBq
  Estimated absorbed dose, Testes, Mean: 0.0229 mSv/MBq
  Estimated absorbed dose, Thymus, Mean: 0.0261 mSv/MBq
  Estimated absorbed dose, Thyroid, Mean: 0.0248 mSv/MBq
  Estimated absorbed dose, Total Body, Mean: 0.0299 mSv/MBq
  Estimated absorbed dose, Upper Large Intestine Wall, Mean: 0.0317 mSv/MBq
  Estimated absorbed dose, Urinary Bladder Wall, Mean: 0.0268 mSv/MBq
  Estimated absorbed dose, Uterus, Mean: 0.0334 mSv/MBq
[4]; healthy volunteers
  effective dose: 0.1166 Rem/mCi
[4]; [16]
  Effective Dose Equivalent, Mean: 0.0454 mSv/MBq
  Effective Dose, Mean: 0.0315 mSv/MBq
  Estimated absorbed dose, Kidneys, Mean: 0.0994 mSv/MBq
[4]; subject injected with 8 mCi
  exposure: 0.933 Rem
[5]
  stability in the blood in vivo: stable up to 4 h in the blood
[5]; in vivo
  radioactivity extraction bound to the blood proteins fraction: Over 90%
[6]; 0.5 h
  T(max/N), tumor/non-tumor ratio: 8.36
  T(mean/N), tumor/non-tumor ratio: 4.13
  Tumor-SUVmax: 1.84
  Tumor-SUVmean: 0.91
[6]; 1 h
  T(max/N), tumor/non-tumor ratio: 9.78
  T(mean/N), tumor/non-tumor ratio: 4.96
  Tumor-SUVmax: 2.74
  Tumor-SUVmean: 1.39
[6]; 8 h
  T(max/N), tumor/non-tumor ratio: 25.35
  T(mean/N), tumor/non-tumor ratio: 13.05
  Tumor-SUVmax: 5.07
  Tumor-SUVmean: 2.61
[6]; 12 h
  T(max/N), tumor/non-tumor ratio: 32.89
  T(mean/N), tumor/non-tumor ratio: 17.21
  Tumor-SUVmax: 6.25
  Tumor-SUVmean: 3.27
[6]; 20 h
  T(max/N), tumor/non-tumor ratio: 63.33
  T(mean/N), tumor/non-tumor ratio: 34.5
  Tumor-SUVmax: 3.8
  Tumor-SUVmean: 2.07
[6]; 20.5 h
  T(max/N), tumor/non-tumor ratio: 66.16
  T(mean/N), tumor/non-tumor ratio: 34.5
  Tumor-SUVmax: 3.97
  Tumor-SUVmean: 2.07
[6]; 24 h
  T(mean/N), tumor/non-tumor ratio: 40.2
  Tumor-SUVmax: 3.67
  Tumor-SUVmean: 2.01
[7]
  T(max/N), tumor/non-tumor ratio: 73.4
[8]
  stability in mouse serum (de-metalation): stable in mouse serum for up to 24 h
[9]; U87MG xenografts, 4 and 24 h p.i.
  tumor accumulation, % ID/g max: 27-30 % ID/g
[9]; mouse, in vivo
  tumor uptake (max) higher than uptake of 64Cu-NOTA-c(RGDfk): 15 times
  tumor uptake blocked by: 55-65%
[10]; U87MG cells, 4 h
  cell uptake: 1.86±0.22 % of total input
[10]; all time points
  cell uptake, effect of albumin in the medium: significantly higher in the absence of albumin in the medium
[10]; time points later than 5 min
  internalization: most of ^64Cu-NMEB-RGD uptake was internalized
[11]
  cell uptake: 0.76±0.03%

## Cc1cc(-c2ccc(NC(=O)[C@@H](CCCCNC(=O)CCN3C(=O)CC(SCC(=O)NCCCC[C@H]4NC(=O)[C@H](Cc5ccccc5)NC(=O)[C@H](CC(=O)O)NC(=O)CNC(=O)[C@H](CCCNC(=N)N)NC4=O)C3=O)NC(=O)CN3CCN(CC(=O)O)CCN(CC(=O)O)CCN(CC(=O)O)CC3)c(C)c2)ccc1/N=N/c1ccc2c(S(=O)(=O)O)cc(S(=O)(=O)O)c(N)c2c1O (some centres unmarked) [90Y-DMEB-RGD, metal not drawn]
[12]; group B 7.4 MBq
  cell apoptosis (TUNEL staining): considerably more cell apoptosis
  cell proliferation (Ki-67 staining): significantly reduced cell proliferation
  tumor vasculature (CD31 staining): lesser than that in the other groups
[12]; group B, two doses of 7.4 MBq
  Hematoxylin and eosin staining, tumor necrosis: most of the tumor area in Group B was already necrotic
[13]; 5 and 12 days post initial treatment, group B 7.4 MBq
  18F-FLT PET, tumor proliferation: significant less 18F-FLT uptake
[13]; 3 days post-injection
  18F-FDG PET, tumor metabolism: decreased metabolism
[13]; 10 days post-treatment, group B 7.4 MBq
  18F-FDG PET, tumor metabolism: significant decreased metabolism
[14]; 1.75 MBq, second injection
  tumor volume: No effect on the tumor volume
[14]; 3.7 MBq, second injection
  tumor volume: Minor tumor shrink
[14]; 7.4, 3.7 and 1.75 MBq groups
  survival compared with saline and 90Y-DOTA-c(RGDfK) groups: significant differences (p<0.01)
[14]; 7.4, 3.7 and 1.75 MBq groups, day 6 post treatment
  tumor volume compared with saline group: significantly lower (p<0.01)
[14]; 7.4 MBq, day 2, regained at day 4
  body weight loss: 5%
[14]; 7.4 MBq, first injection
  tumor volume: reduction of volume by day 8
[14]; 7.4 MBq, second injection 14 days post initial treatment
  tumor volume: tumors almost disappeared up to 30 days post initial treatment
[15]
  tumor growth: delay of tumor growth

## Cc1cc(-c2ccc(NC(=O)CN3CCN4CCN(CC3)CC(=O)[O][64Cu][O]C(=O)C4)c(C)c2)ccc1N=Nc1ccc2c(S(=O)(=O)O)cc(S(=O)(=O)O)c(N)c2c1O [64Cu-NEB]
[9]; U87MG xenografts, 24 h p.i., PET
  tumor uptake: approximately 8 % ID/g
[9]; U87MG xenografts, up to 4 h p.i.
  uptake in the tumor: 6-7 % ID/g
[9]; U87MG, HT29 and MDA-MB-435 xenografts
  order of tumor uptake among xenografts: U87MG>HT29>MDA-MB-435
[9]; all time points
  accumulation in the blood compared with the other tracers: highest accumulation in the blood at all time points
